Data from the RNAGym collection of RNA variant scans (doi:10.1073/pnas.2313332121).

B1: TPR t1 (parent)
chain: GACCAAUCUGCCCUCAGAGCUCGAGAACAUCUUCGGAUGCAGAGGAGGCAGGCUUCGGUGGCGCGAUAGCGCCAACGUCCUCAACCUCCAAUGCAUCCCACCACAUGAUGAUGCCUGAAGAGCCUUGGUUUUUUG

Variants of: B1
Experiment: polymerase ribozyme fitness, log enrichment relative to wild type (log ratio); higher = more active; in vitro selection for triplet polymerase activity
Procedure, shortened: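 Mutant libraries of both subunits of a heterodimeric triplet polymerase ribozyme were PCR-built, transcribed, and selected once in triplicate, with frozen incubation at −7 °C and capture of gel-excised extended constructs on streptavidin beads before RT-PCR. Illumina sequencing of input and output libraries was filtered to genotypes with ≥10 input reads and ≥1 read per output. Fitness is the logarithm of genotype enrichment over wild-type enrichment, using inverse-variance-weighted replicate averages. The logarithm is base 2.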

First: GACCAAUCUGCCCUCAGAGCUCUAGAACAUCUUCGGAUGCAGAGGAGGCAGGCUUCGGUGGCGCGAUAGCGCCAACGUCCUCAACCUCCAAUGCAUCCCACCACAUGAUGAUGCCUGAAGAGCAUUGGUUUUUUG
Second: GACCAAUCUGCCCUCAGAGCUCGAUAACAUCUACGGAUGCAGAGGAGGCAGGCUUCGGUGGCGCGAUUGCGCCAACGUCCUCAACCUCCAAUGCAUCCCACCACAUGAUGCUGCCUGAAGAGCCUUCGUUUUUUG
The “polymerase ribozyme fitness (log ratio)” value of the first is higher: -4.31 for the first, -6.82 for the second.

Compared with GACCAAUCUGCCCUCAGAGCUCGAGAACAUCUUCGGAUGCAGAGGAGACAGGCUUCGGUGGCGCGAUAGCGCCAACGUCCUCAACAUCCAAUGCAUCCCACCACAUGAUGAUGCCUGAAGAGCCUUGGUUUUUUG, GACCAAUCUGCCCUCAGAGCUCGAGAACAUCUUCGGAUGCAGAGGAGGCAGGUUUCGGUUGCGCGAUAGCGCCAACGUCCUCAACCUCCAAUGCAUCCCACCACAUGAUGAUGCCUGAAGCGCCUUGGUUUUUUG is higher in “polymerase ribozyme fitness (log ratio)” value: -0.909 for the first, 1.26 for the second.

Going from GACCCAUCUGCCCUCAGAGCUCGAGAACAUCUUCGGAUGCAGAGGAGGCAGGCUUCGGUGGCGCGAUAGCGCAAACGUCCUCAACCUCCAAUGCAUCCCACAACAUGAUGAUGCCUGAAGAGCCUUGGUUUUUUG to GACCAAUCUGCCCUCAGAGCUCGAGAACAUCUUCGGAUGCAGAGGAGGCAGGCUUCGGUGGCGCGAUAGCGCCAACGUGCUCAACCUCCAAUGCAUCCCACCACAUGAUGAUGCCUGAAGUGCCUUGGUUUUUUG, the “polymerase ribozyme fitness (log ratio)” value rises from -2.49 to 0.316.

Going from GACCAAUCUGCCCUCAGAGCUCGAGAACAUCUUCGGAUGCAGAGGAGGUAAGCUUCGGUGGCGCGAUAGCGCCAACGUCCUCAACCUCCAAUGCAUCCCACCACAUGAUGAUGCCUGAAGAGCCUUGGUUUUUUG to GACCAAUCUGGCCUCAGAGCUCGAGAACAUCUUCGGAUGCACAGGAGGUAGGCUUCGGUGGCGCGAUAGCGCCAACGUCCUCAACCUCCAAUGCAUCCCACCACAUGAUGAUGCCUCAAGAGCGUUGGUUUUUUG, the “polymerase ribozyme fitness (log ratio)” value falls from -1.4 to -4.14.

Compared with GACCAAUCUGCCCUCAGAGCUCGAGAACAUCUUCGGAUGCAGAGGAGGCAGGCUUCGGUGGCGCGAUAGCGCCAACGUCCUCAACCUCCAAUGCAUCCCACCACAUGAUGAUGCCUGAAGAGCAAUGGUUUUUUG, GACAAAUCUGCCCUCAGAGCUCGAGAACAUCUUCGGAUGCAGAGGAGGCAGGCUUAGGUGGCGCGAUAGAGUCAACGUCCUCAACCUCCAAUGCAUCCCACCACAUGAUGAUGCCUGAAGAGCCGUGGUUUUUUG is lower in “polymerase ribozyme fitness (log ratio)” value: 1.57 for the first, -4.17 for the second.

Going from GACCAAUCUGCCCUCAGAGCUCGAGAACAUCUUUGGAUGCAGAGGAGGCAGGCUUCGGUGGCGCGAUAGCGCCAACGUCCUCAACCUCCAAUGCAUCCCACCACAUGAUGAUGCCUGAAAAGCCUUGGUAUUUUG to GACCAAUCUGCCCUCAGAGCUCGAGAACAUCUUCGGAUGCAGAGAAGACAUGCUUCGGUGGCGCGAUAGCGCCAACGUCCUCUACCUCCAAUGCAUCCCACCACAUGAUGAUGCCUGAAGAGCCUGGGUUUUUUG, the “polymerase ribozyme fitness (log ratio)” value falls from -4.02 to -5.24.

Going from GACCAAUCUGGCCUCAGAGCUCGAGAACAUCUUCGGUUGCAUAGGAGGCAGGCUUCGGUGGCGCGAUAGCGCCAACGUCCUCAACCUCCAAUGCAUCCCACCACAUGAUGAUGCCUGAAGAGCCUUGGUUUUUUG to GACCAAUCUGCCCUCAGAGCUCGAGAACAUCUUCGGAUGCAGAGGAGGCAGGCUUCGGUGGCGCGAUAGCACCAACGUCCUCAACCUCCAAUGCAUCCCACCACAUGAUGCUGCCUGAAGAGCCUUGGUUUUUUG, the “polymerase ribozyme fitness (log ratio)” value rises from -0.864 to -0.4.

First: GACCAAUCUGCCCUCAGAGCUCGAGAACAUCUUCGGAUGCAGAGGAGGCAGGCUUCGGUGGCGCGAUACCGCCAACGUCCUCAACCUCCAAUGCAUCCCACCACAUGAUGAUGCCUGAAUAGGCUUGGUUUUUUG
Second: GACCAAUCUGCCCUCAGAGCUCGAGAACACCUUCGGAUGCGGAGGAGGCAGGCUUCGGUGGCGCGAUAGCGCCAACGUCCUCAACCUCCAAUGCAUCCCACCACAUGAUGAUGCCUGAAGAGCCUUGGUUUUUUG
The “polymerase ribozyme fitness (log ratio)” value of the first is higher: -0.319 for the first, -3.33 for the second.

First: GACCAAUCUGCCCUCAGAGCUCGAGAACAUCUUCGGAUGCAGAGGAGGCAGGCUUCGGUGGCGCGAUAGCGCGAACGUCCGCAACCUCCAAUGCAUCCCACCACAUGAUGAUGCCUGAAGAGCCUUGGUUUUUUG
Second: GACCAAUCUGCCCUCAGAGCUCGAGAACAUCUUCGGAUGCAGAGGAGGCAGGCUUCGGUGGCGCGAUAGCGCGAACGUCCUCAACCUCCAAUGCAUCCCACCACAUGAUGUUGCCUGAAGAGCCUUGGUUUUUUG
The “polymerase ribozyme fitness (log ratio)” value of the first is higher: -3.66 for the first, -4.08 for the second.

Compared with GACCAAUCUGCCCUCAGAGCUCGAGAACAUCUUCGGAUGCAGAGGAGGCAGGCUUCGGUGGCGCGAUAGUGCCAACGUCUUCAACCUCCCAUGCAUCUCACCACAUGAUGAUGCCUGAAGAGCCUUGGUUUUUUG, GACCAAUCUGCCCUCAGAGCUCGAGAACAUCUUCGGAUGCAGGGGAGUCAGGCUUCGGUGGCGCGAUAGCGCCAACGUCCUCAACCUCCAAUGCAUCCCACCACAUGAUGAUGUCUGAAGAGCCUUGGUUUUUUG is higher in “polymerase ribozyme fitness (log ratio)” value: -5.92 for the first, -2.07 for the second.

For GACCAAUUUGCCCUUAGAGCUCGAGAACAUCUUCGGAUGCAGAGGAGGCAGGCUUCGGUGGCGCGAUAGCGGCAACGUCCUCAACCUCCAAUGCAUCCCACCACAUGAUGAUGCCUGAAUAGCCUUGGUUUUUUG, the “polymerase ribozyme fitness (log ratio)” value was 1.39.
